Measurements as given in US8809287B2, “Compositions and methods for altering Wnt autocrine signaling” (Icahn School of Medicine at Mount Sinai, priority 2004, dated 2014).

B1: DKK1: Dickkopf-1, secreted Wnt antagonist protein that binds Wnt co-receptor LRP6; used purified, in conditioned media or retrovirally expressed with HA tag (protein, UniProt O94907 32-266, looked up)
Dickkopf-related protein 1: TLNSVLNSNAIKNLPPPLGGAAGHPGSAVSAAPGILYPGGNKYQTIDNYQPYPCAEDEECGTDEYCASPTRGGDAGVQICLACRKRRKRCMRHAMCCPGNYCKNGICVSSDQNHFRGEIEETITESFGNDHSTLDGYSRRTTLSSKMYHTKGQEGSVCLRSSDCASGLCCARHFWSKICKPVLKEGQVCTKHRRKGSHGLEIFQRCYCGEGLSCRIQKDHHQASNSSRLHTCQRH
modifications: HA tag in some uses
B2: FRP1: human secreted Frizzled Related Protein 1, Wnt antagonist; expressed from pBabe-derived retrovirus with carboxy-terminal HA tag (protein, UniProt Q8N474 32-314, looked up)
Secreted frizzled-related …: SEYDYVSFQSDIGPYQSGRFYTKPPQCVDIPADLRLCHNVGYKKMVLPNLLEHETMAEVKQQASSWVPLLNKNCHAGTQVFLCSLFAPVCLDRPIYPCRWLCEAVRDSCEPVMQFFGFYWPEMLKCDKFPEGDVCIAMTPPNATEASKPQGTTVCPPCDNELKSEAIIEHLCASEFALRMKIKEVKKENGDKKIVPKKKKPLKLGPIKKKDLKKLVLYLKNGADCPCHQLDNLSHHFLIMGRKVKSQYLLTAIHKWDKKNKEFKNFMKKMKNHECPTFQSVFK
modifications: C-terminal HA tag
notes: human secreted Frizzled Related Protein 1, Wnt antagonist; expressed from pBabe-derived retrovirus with carboxy-terminal HA tag

Key:
Assay type in all cases: cell-based, human
[1] = system: TCF dependent transcription; assay: TOP-Glow/FOP-Glow TCF reporter assay in PAI tumor cells; conditions: PAI ovarian tumor cells, 48 hours
Procedure: Wnt signaling activates TCF dependent transcription, which can be monitored by reporters containing TCF responsive elements (Morin et al., (1997) Science 275:1787-1790). TCF responsive elements operably linked to a reporter (TOP-Glow, wild type, or FOP-Glow, mutant) were analyzed for transcriptional activity in PAI tumor cells in the presence or absence of DKK1. Ovarian tumor PAI cells plated at 3×10^5 per well in 6-well plates were co-transfected with 1 μg of either the TOP-glow or FOP-glow plasmids (Upstate Biotechnology, Waltham, Mass.) and 0.001 μg of the Renilla control plasmid (pRL-CMV) utilizing Fugene (Roche) according to the manufacturer's instructions. After 48 hours cells were lysed and analyzed utilizing the Dual Luciferase Reporter Assay system (Promega, Madison, Wis.). […] These findings further established that TCF dependent transcription was constitutively activated in these tumor cells by an autocrine Wnt mechanism.

uncomplexed β-catenin [2] = assay: Uncomplexed β-catenin in HCC38 and other positive breast cancer cell lines; conditions: HCC38 and several positive breast cancer lines; DKK1-containing conditioned media for two hours
Procedure: (§1) β-catenin levels were assessed using the GST-E-cadherin binding assay, which has been previously described (Bafico et al., (1998) Oncogene 16:2819-2825). Briefly, bacterially expressed GST-E-cadherin was purified with glutathione-Sepharose beads and incubated with 1 mg of each cell lysate. The GST-E-cadherin/[…]-catenin complex bound to the beads was recovered by centrifugation and analyzed by SDS-PAGE followed by immunoblotting. The uncomplexed β-catenin was detected using a monoclonal antibody to β-catenin (Transduction Laboratories). Unphosphorylated β-catenin was detected with a monoclonal antibody specific for β-catenin dephosphorylated at residues 27-37 (Alexis, Läufelfingen, Switzerland). FRP1-HA and DKK1-HA were detected with an anti-HA monoclonal antibody (Hybridoma Center, Mount Sinai School of Medicine, New York).
In addition, we have analyzed about 20 additional human breast cancer cell lines for increased levels of uncomplexed β-catenin. Analysis of uncomplexed β-catenin levels was performed as described in Example 3 utilizing 1 mg of total cell lysate. A monoclonal antibody to β-catenin (Transduction Laboratories) was utilized for immunoblotting. We found increased levels of uncomplexed β-catenin in 6 of these cell lines (FIG. 3A, lanes 1, 3, 4 and data not shown). We have also analyzed DKK inhibition of autocrine Wnt signaling in HCC38 breast cancer cells. […]

LEF-1 = assay: Northern blot of LEF-1 in MDAMB157 cells; conditions: stable expression
Procedure: (§2) Alterations in the expression of a number of genes identified as targets of canonical Wnt signaling have been reported, although it should be noted that there is variability among Wnt target genes in different cell systems (Giles et al., (2003). Biochim. Biophys. Acta 1653:1-24). To investigate the effects of FRP1 and DKK1 inhibition on gene expression in MDAMB157 breast tumor cells, Northern blot analysis was performed on representative Wnt transcriptional targets, including Myc (He et al., (1998) Science 281:1509-1512), the LEF-1 transcription factor (Filali et al., (2002) J. Biol. Chem. 277:33398-33410) and the dominant negative helix-loop-helix transcriptional regulator, Id2 (Rockman et al., (2001) J. Biol. Chem. 276:45113-45119).
(§3) Total RNAs from MDAMB157 cells exogenously expressing vector alone, FRP1, or DKK1 were extracted using Triazol (Invitrogen), separated by agarose gel electrophoresis (1% agarose gel) and transferred to a nylon membrane (Hybond, Pharmacia). Probes were labeled by the Random Prime Labelling System method (Amersham Biosciences), and hybridization was performed overnight utilizing the Hybrisol I solution (Serologicals Corporation) according to the manufacturer's instructions. Normalization was performed utilizing a commercial human GADPH control probe (BD Biosciences Clontech). Probes were labelled with α-^32P-dCTP.

uncomplexed β-catenin [3] = assay: Uncomplexed β-catenin in PAI ovarian tumor cells; conditions: DKK1-HA retrovirus
Procedure: as §1
Breast (MDAMB231, ATCC No. HTB-26) and ovarian A1847 tumor cell lines were infected with vector alone or FRP 1-HA (described in Example 1) retroviruses and marker selected. […] Breast (MDAMB231) and ovarian A1847 tumor cell lines were analyzed for uncomplexed β-catenin and FRP 1-HA by immunoblot analysis with either an anti-β-catenin antibody (Transduction Laboratories) or an anti-HA antibody (Hybridoma Center, Mount Sinai School of Medicine, New York). […]

keratin 8 = assay: RNA blot of keratin 8 in MDAMB157 cells; conditions: stable expression
Procedure: as §3
Since canonical Wnt signaling appears to be involved in maintaining epithelial progenitor cells of several tissues (van de Wetering et al. (2002) Cell 111:241-250; Alonso and Fuchs (2003) Genes Dev. 17:1189-1200; Reya et al. (2003) Nature 423:409-414; Polesskaya et al. (2003) Cell 113, 841-852), including the mouse mammary gland (Li et al. (2003) Proc Natl Acad Sci U.S.A. 100:15853-15858; Liu et al. (2004) Proc. Nat'l Acad. Sci. U.S.A. 101:4158-4163), we also investigated whether downregulation of Wnt signaling in MDAMB157 tumor cells affected their differentiated state. […] All of these findings provide evidence for a Wnt autocrine transforming mechanism in human tumor cells.

MYC = assay: Northern blot of MYC in MDAMB157 cells; conditions: stable expression
Procedure: as §2, §3

Molecule | level of endogenous TCF dependent signaling [1] | uncomplexed β-catenin levels (uncomplexed β-catenin [2]) | expression of LEF-1 (LEF-1) | constitutively up-regulated β-catenin (uncomplexed β-catenin [3]) | expression of keratin 8 (keratin 8) | expression of MYC (MYC)
B1 | striking reduction | striking reduction | reduced | inhibition of constitutively up-regulated β-catenin | striking increase | reduced
B2 |  |  | reduced |  | striking increase | reduced
